Results from patent publication US20260151519A1 (AKTIS ONCOLOGY, published 2026).
Primed or numbered codes have the meaning given here. Where no end group is shown, it is not given here. [ ]: non-standard residue; d: D form. The star is where a group is joined. Biotin = O=C1N[C@H]2[C@H](CS[C@H]2CCCCC(=O)*)N1; Lys(Me3) = C[N+](C)(C)CCCC[C@H](N)C(=O)O; PEG4′ = not defined here

T1: GLP2R (human, UniProt O95838 1-553)
T1 construct: whole, on cells
T1 sequence (looked up): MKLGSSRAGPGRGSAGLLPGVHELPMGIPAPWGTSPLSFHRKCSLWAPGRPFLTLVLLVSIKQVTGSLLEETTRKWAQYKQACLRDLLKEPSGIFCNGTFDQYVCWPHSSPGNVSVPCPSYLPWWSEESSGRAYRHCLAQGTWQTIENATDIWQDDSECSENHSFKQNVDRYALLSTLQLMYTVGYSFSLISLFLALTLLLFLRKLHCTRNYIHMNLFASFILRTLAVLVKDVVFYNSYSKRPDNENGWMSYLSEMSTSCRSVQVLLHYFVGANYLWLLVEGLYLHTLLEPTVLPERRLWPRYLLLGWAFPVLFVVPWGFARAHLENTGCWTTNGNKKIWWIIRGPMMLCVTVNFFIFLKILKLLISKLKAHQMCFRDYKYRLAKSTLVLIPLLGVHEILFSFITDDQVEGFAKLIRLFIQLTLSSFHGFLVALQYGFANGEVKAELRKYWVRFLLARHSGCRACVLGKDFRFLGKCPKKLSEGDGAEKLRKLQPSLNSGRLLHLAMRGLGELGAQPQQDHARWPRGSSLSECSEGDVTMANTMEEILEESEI

T2: PLPP3 (human, UniProt O14495 1-311)
T2 construct: whole, on cells
T2 sequence (looked up): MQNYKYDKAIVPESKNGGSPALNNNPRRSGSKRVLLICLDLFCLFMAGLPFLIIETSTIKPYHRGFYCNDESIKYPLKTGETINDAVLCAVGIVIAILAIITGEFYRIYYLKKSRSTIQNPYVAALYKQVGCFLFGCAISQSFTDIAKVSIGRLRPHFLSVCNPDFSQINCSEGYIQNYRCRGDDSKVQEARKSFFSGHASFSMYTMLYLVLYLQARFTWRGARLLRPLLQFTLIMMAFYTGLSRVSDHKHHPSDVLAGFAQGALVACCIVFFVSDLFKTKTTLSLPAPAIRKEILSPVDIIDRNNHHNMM

T3: SPNS2 (human, UniProt Q8IVW8 1-549)
T3 construct: whole, on cells
T3 sequence (looked up): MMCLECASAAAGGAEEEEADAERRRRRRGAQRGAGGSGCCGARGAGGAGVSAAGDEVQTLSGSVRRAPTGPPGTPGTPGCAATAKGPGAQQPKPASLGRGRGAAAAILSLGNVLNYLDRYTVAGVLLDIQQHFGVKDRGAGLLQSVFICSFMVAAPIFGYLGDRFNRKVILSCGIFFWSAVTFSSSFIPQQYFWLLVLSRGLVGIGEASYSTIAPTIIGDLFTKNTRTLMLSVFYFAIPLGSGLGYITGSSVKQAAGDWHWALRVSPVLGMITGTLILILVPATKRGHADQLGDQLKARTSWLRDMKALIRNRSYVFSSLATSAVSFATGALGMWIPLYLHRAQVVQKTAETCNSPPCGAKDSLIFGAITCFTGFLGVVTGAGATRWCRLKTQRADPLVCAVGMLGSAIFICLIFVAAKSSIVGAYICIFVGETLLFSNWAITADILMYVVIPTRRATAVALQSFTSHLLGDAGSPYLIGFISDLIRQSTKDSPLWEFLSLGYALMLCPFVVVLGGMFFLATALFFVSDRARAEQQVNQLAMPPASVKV

T4: Human Nectin-4 (human, UniProt Q96NY8 32-349, limits assumed)
T4 construct: Protein immobilised on the SPR chip; also called target protein
T4 sequence: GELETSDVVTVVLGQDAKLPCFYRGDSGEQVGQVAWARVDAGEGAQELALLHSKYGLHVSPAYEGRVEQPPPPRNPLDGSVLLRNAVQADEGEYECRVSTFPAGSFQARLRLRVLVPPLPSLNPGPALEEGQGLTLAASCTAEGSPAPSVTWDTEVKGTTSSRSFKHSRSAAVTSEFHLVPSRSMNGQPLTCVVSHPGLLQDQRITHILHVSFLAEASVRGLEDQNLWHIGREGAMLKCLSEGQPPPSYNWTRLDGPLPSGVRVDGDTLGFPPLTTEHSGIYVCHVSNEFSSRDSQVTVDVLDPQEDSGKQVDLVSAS


Key:
[1] = molecular target: T5, IGFBP5 (human, UniProt P24593 21-272); experiment: cell microarray on HEK293 cells
T5 construct: whole, on cells; Secreted targets were tethered to the plasma membrane
T5 sequence (P24593 21-272): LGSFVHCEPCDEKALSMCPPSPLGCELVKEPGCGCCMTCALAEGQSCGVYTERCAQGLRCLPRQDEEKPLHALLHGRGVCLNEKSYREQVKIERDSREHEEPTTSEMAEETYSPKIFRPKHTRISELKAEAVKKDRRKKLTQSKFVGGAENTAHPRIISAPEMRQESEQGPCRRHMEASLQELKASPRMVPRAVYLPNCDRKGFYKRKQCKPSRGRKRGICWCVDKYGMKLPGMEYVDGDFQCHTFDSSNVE
Procedure: (§1) Initially, two pools of compounds were tested. […] To perform this assay, HEK293 cells were plated on a dish and localized spots of cells were transiently over-expressed with a single cDNA encoding for GFP and one of the 6,416 targets. Included in this library were multiple clones for the Nectin family members, including plasma membrane, non-tethered secreted, and tethered secreted forms of Nectin-1, 2, 3, and 4. Secreted protein targets were tethered to the plasma membrane to aid in detection. The molecule pools were incubated on the fixed, over-expressing cell microarrays (n=2 per protein), and binding was visualized using Alexa Fluor 647 streptavidin fluorescence.

[2] = molecular target: T6, TRPV4 (human, UniProt Q9HBA0 1-871); experiment: cell microarray on HEK293 cells
T6 construct: whole, on cells
T6 sequence (Q9HBA0 whole entry): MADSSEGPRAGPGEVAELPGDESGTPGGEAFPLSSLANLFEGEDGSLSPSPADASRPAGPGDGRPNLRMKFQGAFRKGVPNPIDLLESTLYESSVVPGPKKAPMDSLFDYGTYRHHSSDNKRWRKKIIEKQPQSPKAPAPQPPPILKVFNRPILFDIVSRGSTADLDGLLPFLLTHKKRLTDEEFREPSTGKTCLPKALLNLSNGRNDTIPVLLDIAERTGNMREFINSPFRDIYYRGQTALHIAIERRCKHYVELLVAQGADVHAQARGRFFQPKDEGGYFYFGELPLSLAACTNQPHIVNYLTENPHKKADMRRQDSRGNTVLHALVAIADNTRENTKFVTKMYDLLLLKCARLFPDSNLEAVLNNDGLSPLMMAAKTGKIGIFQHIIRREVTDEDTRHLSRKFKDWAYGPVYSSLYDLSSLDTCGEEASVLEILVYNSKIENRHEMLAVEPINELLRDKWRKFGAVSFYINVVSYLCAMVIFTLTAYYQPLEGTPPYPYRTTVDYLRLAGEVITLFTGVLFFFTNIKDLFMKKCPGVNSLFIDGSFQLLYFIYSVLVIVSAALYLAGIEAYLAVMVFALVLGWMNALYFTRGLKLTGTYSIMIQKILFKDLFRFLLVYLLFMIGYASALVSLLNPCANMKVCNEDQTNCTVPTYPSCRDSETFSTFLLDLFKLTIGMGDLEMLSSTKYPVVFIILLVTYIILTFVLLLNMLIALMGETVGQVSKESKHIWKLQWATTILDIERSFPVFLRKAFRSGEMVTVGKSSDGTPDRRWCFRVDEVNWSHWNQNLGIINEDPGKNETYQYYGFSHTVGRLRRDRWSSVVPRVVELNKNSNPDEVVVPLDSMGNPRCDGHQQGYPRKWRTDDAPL
Procedure: as §1

[3] = molecular target: T7, EGF (human, UniProt P01133 23-1207); experiment: cell microarray on HEK293 cells
T7 construct: whole, on cells
T7 sequence (P01133 23-1207): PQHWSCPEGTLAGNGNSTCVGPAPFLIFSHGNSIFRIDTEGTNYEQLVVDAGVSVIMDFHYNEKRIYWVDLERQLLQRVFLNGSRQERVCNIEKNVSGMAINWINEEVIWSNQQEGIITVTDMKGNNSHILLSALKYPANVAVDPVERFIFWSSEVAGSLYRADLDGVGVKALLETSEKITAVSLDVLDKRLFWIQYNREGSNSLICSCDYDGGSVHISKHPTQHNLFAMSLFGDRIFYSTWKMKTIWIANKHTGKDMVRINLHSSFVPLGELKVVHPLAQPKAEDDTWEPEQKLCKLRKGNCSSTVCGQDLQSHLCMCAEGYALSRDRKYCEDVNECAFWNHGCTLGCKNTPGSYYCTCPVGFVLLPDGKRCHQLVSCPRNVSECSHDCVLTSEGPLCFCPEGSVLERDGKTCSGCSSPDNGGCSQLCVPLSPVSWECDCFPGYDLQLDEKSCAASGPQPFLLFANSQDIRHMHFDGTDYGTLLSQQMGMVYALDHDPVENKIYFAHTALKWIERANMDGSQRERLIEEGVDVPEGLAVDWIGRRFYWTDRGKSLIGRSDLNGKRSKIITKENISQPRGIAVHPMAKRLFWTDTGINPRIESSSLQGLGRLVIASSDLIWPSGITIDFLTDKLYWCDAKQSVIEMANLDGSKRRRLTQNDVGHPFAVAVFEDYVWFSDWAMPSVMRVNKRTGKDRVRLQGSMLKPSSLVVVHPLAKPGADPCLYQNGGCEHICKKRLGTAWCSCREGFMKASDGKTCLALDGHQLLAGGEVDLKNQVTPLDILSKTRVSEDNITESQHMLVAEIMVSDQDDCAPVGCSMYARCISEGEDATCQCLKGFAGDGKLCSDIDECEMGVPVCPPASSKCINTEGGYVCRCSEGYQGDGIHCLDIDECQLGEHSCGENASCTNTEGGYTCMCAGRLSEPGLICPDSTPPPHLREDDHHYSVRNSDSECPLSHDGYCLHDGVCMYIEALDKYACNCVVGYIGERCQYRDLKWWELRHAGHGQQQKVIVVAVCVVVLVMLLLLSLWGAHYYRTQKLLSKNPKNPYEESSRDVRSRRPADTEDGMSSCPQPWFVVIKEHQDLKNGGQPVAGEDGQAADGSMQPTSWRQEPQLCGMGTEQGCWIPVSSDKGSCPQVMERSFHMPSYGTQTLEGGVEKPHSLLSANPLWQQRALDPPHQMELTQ
Procedure: as §1

[4] = molecular target: T1, GLP2R; experiment: cell microarray on HEK293 cells
Procedure: as §1

[5] = molecular target: T8, CXCL12 (human, UniProt P48061 22-93); experiment: cell microarray on HEK293 cells
T8 construct: whole, on cells; Secreted targets were tethered to the plasma membrane
T8 sequence (P48061 22-93): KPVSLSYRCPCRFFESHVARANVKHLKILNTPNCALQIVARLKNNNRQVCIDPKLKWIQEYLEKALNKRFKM
Procedure: as §1

[6] = molecular target: T2, PLPP3; experiment: cell microarray on HEK293 cells
Procedure: as §1

[7] = molecular target: T3, SPNS2; experiment: cell microarray on HEK293 cells
Procedure: as §1

[8] = molecular target: T9, PAPPA (human, UniProt Q13219 82-1627); experiment: cell microarray on HEK293 cells
T9 construct: whole, on cells; Secreted targets were tethered to the plasma membrane
T9 sequence (Q13219 82-1627): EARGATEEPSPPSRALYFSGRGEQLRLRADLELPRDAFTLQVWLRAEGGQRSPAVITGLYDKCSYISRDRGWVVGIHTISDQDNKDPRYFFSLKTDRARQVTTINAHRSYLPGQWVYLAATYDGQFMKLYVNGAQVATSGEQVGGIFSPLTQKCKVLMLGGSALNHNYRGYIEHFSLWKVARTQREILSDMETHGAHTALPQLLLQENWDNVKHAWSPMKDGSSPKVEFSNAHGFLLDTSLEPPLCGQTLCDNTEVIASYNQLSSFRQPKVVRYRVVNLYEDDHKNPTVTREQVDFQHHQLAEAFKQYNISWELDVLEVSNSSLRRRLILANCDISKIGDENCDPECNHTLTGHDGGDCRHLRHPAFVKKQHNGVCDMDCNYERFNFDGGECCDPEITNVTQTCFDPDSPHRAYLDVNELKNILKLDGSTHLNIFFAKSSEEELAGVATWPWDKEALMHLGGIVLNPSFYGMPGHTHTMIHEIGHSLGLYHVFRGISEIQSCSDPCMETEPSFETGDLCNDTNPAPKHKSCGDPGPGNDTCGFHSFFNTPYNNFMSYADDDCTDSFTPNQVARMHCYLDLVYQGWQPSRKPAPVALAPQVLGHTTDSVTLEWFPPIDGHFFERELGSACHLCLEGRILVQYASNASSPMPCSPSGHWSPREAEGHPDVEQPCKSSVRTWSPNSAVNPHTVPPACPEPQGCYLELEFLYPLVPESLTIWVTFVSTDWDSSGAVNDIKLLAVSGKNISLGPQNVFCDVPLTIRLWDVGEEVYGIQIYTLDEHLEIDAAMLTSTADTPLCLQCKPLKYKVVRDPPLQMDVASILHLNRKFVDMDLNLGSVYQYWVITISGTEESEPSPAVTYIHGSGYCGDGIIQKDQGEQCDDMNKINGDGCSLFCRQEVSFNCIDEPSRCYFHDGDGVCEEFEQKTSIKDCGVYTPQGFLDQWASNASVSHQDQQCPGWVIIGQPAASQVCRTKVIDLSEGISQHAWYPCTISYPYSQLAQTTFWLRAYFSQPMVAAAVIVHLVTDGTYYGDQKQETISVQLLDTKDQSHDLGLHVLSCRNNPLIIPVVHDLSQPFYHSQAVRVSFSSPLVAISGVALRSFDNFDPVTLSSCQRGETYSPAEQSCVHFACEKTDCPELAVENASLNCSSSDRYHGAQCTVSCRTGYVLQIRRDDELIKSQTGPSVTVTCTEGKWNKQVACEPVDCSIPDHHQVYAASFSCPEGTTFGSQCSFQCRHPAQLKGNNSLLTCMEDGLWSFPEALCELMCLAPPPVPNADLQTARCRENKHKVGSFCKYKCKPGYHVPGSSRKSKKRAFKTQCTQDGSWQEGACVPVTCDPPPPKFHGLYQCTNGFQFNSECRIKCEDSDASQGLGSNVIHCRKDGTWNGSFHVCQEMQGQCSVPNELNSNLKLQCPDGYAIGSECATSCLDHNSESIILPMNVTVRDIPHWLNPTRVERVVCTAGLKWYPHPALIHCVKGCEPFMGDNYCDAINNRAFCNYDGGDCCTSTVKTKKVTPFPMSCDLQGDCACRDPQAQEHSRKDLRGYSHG
Procedure: as §1

[9] = molecular target: T4, Human Nectin-4; experiment: SPR, Biacore T200, target immobilised, 1:1 model
Procedure: Surface plasmon resonance (SPR) analyses were performed using Biacore T200 (GE Healthcare). Target protein (“ligand”) was immobilized to a CM5 Series S sensor chip (Cytiva) using amine-coupling chemistry. Running buffer was 0.05% surfactant P20 in HEPES buffered saline (HBS-P), pH 7.4 (Cytiva). Immobilization was performed at 25° C. Carboxyl groups in each flow cell were activated using a 1:1 mixture of 0.4 M 1-ethyl-3-(3-dimethylaminopropyl)-carbodiimide in water (EDC) and 0.1 M N-hydroxysuccinimide in water (NHS) for 7 minutes. The ligand was prepared in 10 mM sodium acetate pH 5 (Cytiva). Pulsatile injections were made to target a specific immobilization level. Any remaining amine-reactive esters on the chip surface were blocked with a 7-minute injection of 1 M ethanolamine, pH 8.5. Three 10-second pulses of 50 mM sodium hydroxide were then made to remove any unbound ligand. Reference cells were modified using amine coupling chemistry, omitting ligand injection.
Increase in signal (RU) is proportional to an increase in binding events between the analyte and ligand surface. The injection was then stopped, and dissociation was measured. […] Measured association (kₐ, 1/Ms⁻¹) and dissociation (kd, s⁻¹) were fit to a 1:1 binding model to calculate a dissociation equilibrium constant, KD(M) for each analyte.

Binder	binding result [1]	binding result [2]	binding result [3]	binding result [4]	binding result [5]	binding result [6]	binding result [7]	binding result [8]	Kd [9]
{Biotin-PEG4′}-CEYDEEFFTALARLRGGDICQYIQA[Lys(Me3)]FQYLPALCIEEILDNLGCS (designed binder, cysteine pairing not given here) [C253]	no binding (tested: 2 µg/mL)	no binding (tested: 2 µg/mL)	no binding (tested: 2 µg/mL)	no binding (tested: 2 µg/mL)	no binding (tested: 2 µg/mL)	no binding (tested: 2 µg/mL)	no binding (tested: 2 µg/mL)	no binding (tested: 2 µg/mL)	0.255 nM
{Biotin-PEG4′}-CDYDEQFFTALKRLRGADICEYIQASFQYLPGECIEEILDNLGCS (designed binder, cysteine pairing not given here) [C208]	no binding (tested: 2 µg/mL)	no binding (tested: 2 µg/mL)	no binding (tested: 2 µg/mL)	no binding (tested: 2 µg/mL)	no binding (tested: 2 µg/mL)	no binding (tested: 2 µg/mL)	no binding (tested: 2 µg/mL)	no binding (tested: 2 µg/mL)	0.302 nM
{Biotin-PEG4′}-CDYDEQFFTALARLRGADICEYIQASFQYLPGECIEEILDNLGCS (designed binder, cysteine pairing not given here) [C247]	no binding (tested: 2 µg/mL)	no binding (tested: 2 µg/mL)	no binding (tested: 2 µg/mL)	no binding (tested: 2 µg/mL)	no binding (tested: 2 µg/mL)	no binding (tested: 2 µg/mL)	no binding (tested: 2 µg/mL)	no binding (tested: 2 µg/mL)	0.283 nM
{Biotin-PEG4′}-CEYDEQFFTALKRLRGDDICDYIQASFQYLPGLCIEEILDNLGCS (designed binder, cysteine pairing not given here) [C197]	no binding (tested: 2 µg/mL)	no binding (tested: 2 µg/mL)	no binding (tested: 2 µg/mL)	no binding (tested: 2 µg/mL)	no binding (tested: 2 µg/mL)	no binding (tested: 2 µg/mL)	no binding (tested: 2 µg/mL)	no binding (tested: 2 µg/mL)	0.212 nM
{Biotin-PEG4′}-CDYDEQFFTALKRLRGGDICEYIQASFQYLPGLCIEEILDNLGCS (designed binder, cysteine pairing not given here) [C190]	no binding (tested: 2 µg/mL)	no binding (tested: 2 µg/mL)	no binding (tested: 2 µg/mL)	no binding (tested: 2 µg/mL)	no binding (tested: 2 µg/mL)	no binding (tested: 2 µg/mL)	no binding (tested: 2 µg/mL)	no binding (tested: 2 µg/mL)	0.318 nM
